Experiments:
[1] = target: T1, ENPP1 (Homo sapiens, UniProt P22413); experiment: Luciferase based ATP assay of ENPP1 inhibition; assay type: biochemical; conditions: FIG. 17
T1 sequence (P22413 1-925): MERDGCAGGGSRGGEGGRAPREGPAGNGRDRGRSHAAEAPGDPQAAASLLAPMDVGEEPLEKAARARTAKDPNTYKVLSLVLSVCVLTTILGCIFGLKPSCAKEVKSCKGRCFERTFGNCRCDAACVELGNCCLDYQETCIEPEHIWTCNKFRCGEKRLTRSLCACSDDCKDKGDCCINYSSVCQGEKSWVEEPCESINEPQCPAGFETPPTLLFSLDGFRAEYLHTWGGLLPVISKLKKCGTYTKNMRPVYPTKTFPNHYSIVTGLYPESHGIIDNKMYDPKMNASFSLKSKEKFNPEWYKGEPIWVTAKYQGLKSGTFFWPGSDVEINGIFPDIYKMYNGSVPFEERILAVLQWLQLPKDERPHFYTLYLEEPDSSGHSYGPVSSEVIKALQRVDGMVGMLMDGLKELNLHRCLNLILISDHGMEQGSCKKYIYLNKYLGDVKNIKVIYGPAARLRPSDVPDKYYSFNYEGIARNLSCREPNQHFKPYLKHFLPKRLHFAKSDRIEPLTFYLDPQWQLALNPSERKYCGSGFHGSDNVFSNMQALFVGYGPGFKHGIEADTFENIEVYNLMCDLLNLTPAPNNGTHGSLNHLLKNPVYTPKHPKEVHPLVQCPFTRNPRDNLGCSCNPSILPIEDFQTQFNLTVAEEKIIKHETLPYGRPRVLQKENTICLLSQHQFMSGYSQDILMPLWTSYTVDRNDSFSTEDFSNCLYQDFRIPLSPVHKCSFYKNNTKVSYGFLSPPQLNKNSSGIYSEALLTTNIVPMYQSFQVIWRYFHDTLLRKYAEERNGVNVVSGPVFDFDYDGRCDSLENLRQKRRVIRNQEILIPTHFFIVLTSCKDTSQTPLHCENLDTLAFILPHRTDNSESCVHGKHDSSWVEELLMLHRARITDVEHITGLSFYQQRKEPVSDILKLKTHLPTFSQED
Method: FIG. 17 is an exemplary graph showing the effect of monoclonal Ab 12-J-4 in inhibiting ENPP1. In a luciferase based assay, ATP was incubated with luciferase in the presence or absence of ENPP1+/−the mAb or IgG control. In the absence of ENPP1, high luminescence signal is obtained.

[2] = system: ENPP1 mediated cell death of cardiac fibroblasts; experiment: Co-culture of cardiac fibroblasts and cardiomyocytes with recombinant ENPP1 and ATP, cell death; assay type: cell-based; conditions: for cell death and detachment of cardiac fibroblasts: images after 48 hours, versus IgG control, FIG. 18A
Method: FIG. 18A are exemplary micrographs showing ENPP1 mAb inhibits ENPP1 mediated cell death. Cardiac fibroblasts (green) were co-cultured with cardiomyocytes (red) followed by the addition of vehicle (panel A) or recombinant ENPP1 and ATP and IgG (panel B) or recombinant ENPP1 and ATP and 12-J-4 ENPP1mAb (panel C). Images were taken after 48 hours and show cell death and detachment of cardiac fibroblasts in the IgG control well (panel B).
FIG. 18B is an exemplary graph showing results of flow cytometry measuring cell death (PI+) from the assay performed in FIG. 18A.
Next, functional data was collected for the ENPP1 mAb using an in vitro functional assay. As shown in the previous examples, ENPP1 expression induced cardiomyocytes to release pro-inflammatory and pro-apoptotic molecules that induce cell death in a host of cell types in the injury region. To test the ENPP1 mAb, an in vitro functional assay was performed in which cardiac fibroblasts were incubated with cardiomyocytes followed by the addition of a vehicle, recombinant ENPP1 and ATP and IgG, or recombinant ENPP1 and ATP and 12-J-4 ENPP1mAb.

[3] = target: T2, murine ENPP1 (Mus musculus, UniProt P06802); experiment: Cross reactivity of the antibody with murine ENPP1; assay type: binding; conditions: antibody raised against human recombinant protein
T2 sequence (P06802 1-906): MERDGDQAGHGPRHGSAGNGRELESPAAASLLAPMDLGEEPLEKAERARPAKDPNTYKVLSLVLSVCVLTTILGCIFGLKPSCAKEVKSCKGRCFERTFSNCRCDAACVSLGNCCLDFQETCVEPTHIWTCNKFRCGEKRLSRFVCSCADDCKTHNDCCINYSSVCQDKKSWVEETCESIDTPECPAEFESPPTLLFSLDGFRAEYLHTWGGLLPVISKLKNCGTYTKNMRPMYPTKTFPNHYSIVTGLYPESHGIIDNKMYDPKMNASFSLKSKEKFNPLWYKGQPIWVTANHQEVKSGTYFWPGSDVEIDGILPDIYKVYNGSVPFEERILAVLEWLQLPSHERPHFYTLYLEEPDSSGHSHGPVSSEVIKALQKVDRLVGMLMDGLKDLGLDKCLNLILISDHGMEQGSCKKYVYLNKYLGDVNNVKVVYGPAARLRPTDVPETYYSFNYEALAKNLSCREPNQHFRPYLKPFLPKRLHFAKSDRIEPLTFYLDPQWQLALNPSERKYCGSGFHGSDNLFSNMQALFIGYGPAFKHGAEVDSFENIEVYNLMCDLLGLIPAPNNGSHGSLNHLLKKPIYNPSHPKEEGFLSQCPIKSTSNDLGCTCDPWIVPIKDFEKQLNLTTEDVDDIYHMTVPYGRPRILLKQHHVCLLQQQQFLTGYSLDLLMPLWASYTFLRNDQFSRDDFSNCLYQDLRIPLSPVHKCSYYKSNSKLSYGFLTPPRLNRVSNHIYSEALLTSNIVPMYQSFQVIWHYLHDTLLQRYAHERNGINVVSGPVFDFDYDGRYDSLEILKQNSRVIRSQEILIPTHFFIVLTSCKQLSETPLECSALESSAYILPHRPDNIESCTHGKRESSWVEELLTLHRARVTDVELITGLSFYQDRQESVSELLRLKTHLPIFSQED
Description: The antibody was generated in collaboration with Lake Pharma using standard techniques of monoclonal antibody (mAb) generation, including immunization, collection and testing of hybridoma supernatants, cloning of hybridomas and further confirmation by multiple affinity assays followed by selection and production of the ENPP1mAb in a recombinant manner. […] The selected hybridoma has been sequenced and the recombinant monoclonal is produced on a CHO cell line with characterization by electropherogram and mass spectrometry. The molecular weight of the heavy chain is approximately 48 kD and the light chain 24 kD.

[4] = target: T1, ENPP1; experiment: Flow cytometry binding of ENPP1 mAb to HEK cells over-expressing full length ENPP1; design: HEK cells over-expressing full length ENPP1 were incubated with varying concentrations of ENPP1 mAb; expressed in transfected cells; host or cells: HEK cells; conditions: compared among several clones obtained; FIG. 15
Method: FIG. 15 is an exemplary affinity binding curve of ENPP1 monoclonal antibody (mAb) targeting human ENPP1. HEK cells over-expressing full length ENPP1 were incubated with varying concentrations of ENPP1 mAb followed by flow cytometry to determine mean fluorescence intensity as a readout for binding. […] IgG at an identical concentration is used as a control.

B1: 12-J-4: Anti-ENPP1 monoclonal antibody, IgG1kappa, made recombinantly in CHO cells; CDRs SEQ ID NO: 1-6, VH SEQ ID NO: 7, VL SEQ ID NO: 9 (antibody, V domains shown)
VH: EVMLVESGGGLVKPGGSLKLSCVASGFTFSSYTMSWVRQTPEKRLEWVATISGGGGNTYYPDSVKGRFTISRDNAKNTLYLQMSSLRSEDTALYYCARRHYGSSPYAMDYWGQGTSVTVSS
VL: DIQMTQTTSSLSASLGDRVTISCRASQDISNYLNWYQQKPDGTVKLLIYHKTRLHSGVPSRFSGSGSGTDYSLTISNLEQEDIATYFCQQGNMLPWTFGGGTKLEIK
modifications: IgG1 kappa constant regions
luminescence signal when ENPP1 is added ([1]; ATP incubated with luciferase and ENPP1, compared to IgG): significantly higher
inhibition of ENPP1 ([1]; at nanomolar concentrations): potently inhibits
PI+ cells (cell death) by flow cytometry ([2]; FIG. 18B): significant reduction
cell death and detachment of cardiac fibroblasts [2]: significantly abrogated cell death
cell death and detachment of cardiac fibroblasts ([2]; listed as ENPP1mAb): significantly diminished
cross reactivity with murine ENPP1 [3]: significant cross reactivity
binding and inhibitory effects on ENPP1 activity [4]: most potent

Reference: patent publication US12473372B2, “Inhibiting anti-ENPP1 antibodies” (The Regents of the University of California, priority 2020, dated 2025)
